The values below come from patent publication US20100310509A1.

The test has as its target OSMR:gp130 receptor complex on A375 melanoma cells (UniProt Q99650). Description: cell-based or functional assay.

Sequence of OSMR:gp130 receptor complex on A375 melanoma cells (Q99650 28-979 limits assumed, chain 1 of 2): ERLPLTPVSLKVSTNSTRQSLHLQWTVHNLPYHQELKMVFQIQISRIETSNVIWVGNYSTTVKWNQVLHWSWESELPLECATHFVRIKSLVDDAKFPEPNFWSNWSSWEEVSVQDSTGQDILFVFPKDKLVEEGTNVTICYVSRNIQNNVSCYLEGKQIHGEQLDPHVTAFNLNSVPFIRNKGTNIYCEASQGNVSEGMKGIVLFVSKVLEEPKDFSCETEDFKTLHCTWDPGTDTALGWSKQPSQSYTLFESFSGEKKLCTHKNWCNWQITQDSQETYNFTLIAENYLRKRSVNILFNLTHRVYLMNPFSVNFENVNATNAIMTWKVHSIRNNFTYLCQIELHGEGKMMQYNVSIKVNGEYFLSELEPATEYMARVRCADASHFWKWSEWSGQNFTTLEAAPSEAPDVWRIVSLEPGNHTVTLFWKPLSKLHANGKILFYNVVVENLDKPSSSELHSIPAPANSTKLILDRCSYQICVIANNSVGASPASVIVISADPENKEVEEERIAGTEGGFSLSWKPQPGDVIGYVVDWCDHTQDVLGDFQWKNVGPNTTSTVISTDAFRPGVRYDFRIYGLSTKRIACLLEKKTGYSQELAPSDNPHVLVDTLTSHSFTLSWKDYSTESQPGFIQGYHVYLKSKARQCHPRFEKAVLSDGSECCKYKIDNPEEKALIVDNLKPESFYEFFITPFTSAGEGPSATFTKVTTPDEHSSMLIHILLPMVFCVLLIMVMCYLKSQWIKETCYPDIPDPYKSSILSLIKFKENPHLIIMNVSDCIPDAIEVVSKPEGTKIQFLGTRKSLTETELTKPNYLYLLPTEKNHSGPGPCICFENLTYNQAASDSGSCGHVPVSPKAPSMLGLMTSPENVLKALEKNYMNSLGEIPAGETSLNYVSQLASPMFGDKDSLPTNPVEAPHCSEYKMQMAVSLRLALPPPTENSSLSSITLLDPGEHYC
Sequence of OSMR:gp130 receptor complex on A375 melanoma cells (P40189 23-918 limits assumed, chain 2 of 2, further chain): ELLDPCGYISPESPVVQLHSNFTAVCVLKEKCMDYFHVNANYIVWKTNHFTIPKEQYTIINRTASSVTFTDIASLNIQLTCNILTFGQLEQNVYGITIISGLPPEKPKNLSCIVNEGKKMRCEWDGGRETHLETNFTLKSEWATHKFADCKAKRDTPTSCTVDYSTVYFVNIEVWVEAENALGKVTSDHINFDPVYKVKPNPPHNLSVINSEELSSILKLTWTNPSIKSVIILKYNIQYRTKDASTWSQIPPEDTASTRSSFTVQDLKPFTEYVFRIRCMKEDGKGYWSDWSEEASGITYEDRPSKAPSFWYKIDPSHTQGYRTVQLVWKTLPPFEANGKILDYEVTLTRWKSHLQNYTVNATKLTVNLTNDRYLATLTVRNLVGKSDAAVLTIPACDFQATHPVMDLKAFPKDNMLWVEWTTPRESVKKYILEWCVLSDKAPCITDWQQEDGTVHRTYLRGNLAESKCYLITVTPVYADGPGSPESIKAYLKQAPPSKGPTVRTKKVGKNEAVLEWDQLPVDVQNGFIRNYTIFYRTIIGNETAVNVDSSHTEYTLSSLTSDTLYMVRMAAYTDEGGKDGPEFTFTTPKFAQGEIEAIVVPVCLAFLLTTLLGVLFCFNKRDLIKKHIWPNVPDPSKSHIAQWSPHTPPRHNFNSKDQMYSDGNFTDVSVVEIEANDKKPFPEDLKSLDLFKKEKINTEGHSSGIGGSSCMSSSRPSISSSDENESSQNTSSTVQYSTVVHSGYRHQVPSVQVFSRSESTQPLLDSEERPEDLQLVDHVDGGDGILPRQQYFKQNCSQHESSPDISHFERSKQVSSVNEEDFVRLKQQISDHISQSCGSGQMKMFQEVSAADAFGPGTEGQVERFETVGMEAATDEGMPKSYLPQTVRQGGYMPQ

For “OSM-WT ('AGA' modified human Oncostatin M, referred to as wild-type OSM) (from UniProt P13725 26-217) (ligand)”, the concentration that suppresses A375 melanoma cell proliferation by ~50% is 20 ng/mL and the concentration that suppresses A375 melanoma cell proliferation by ~90% came to 50 ng/mL.
